This passage reports Fold change results from patent US20200277377A1 (WUXI BIOLOGICS SHANGHAI, published 2020).

Assay [1] addresses T1, hCTLA4_ECD.His point mutant T72 to alanine (human, UniProt P16410 36-161).
T1 construct: extracellular domain; alanine-scan mutein, HEK293F supernatant
T1 sequence (looked up): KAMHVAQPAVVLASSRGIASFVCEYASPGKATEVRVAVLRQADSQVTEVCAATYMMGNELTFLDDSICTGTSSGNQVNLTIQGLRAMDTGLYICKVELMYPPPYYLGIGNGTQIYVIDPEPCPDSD
In words: capture ELISA, alanine scan, vs silent alanine substitutions. In outline:
(§1)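 Secreted His-tagged CTLA4 point muteins in quantified supernatant were captured and probed with HRP anti-His antibody and TMB. Absorbance normalised to the mean of control mutants; epitope residues were assigned with a binding fold-change cutoff of <0.55.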
(In general: An ELISA detects its analyte on a solid surface through an enzyme-linked reagent.)

Assay [2] addresses T2, hCTLA4_ECD.His point mutant I143 to alanine (human, UniProt P16410 36-161).
T2 construct: extracellular domain; alanine-scan mutein, HEK293F supernatant
T2 sequence (looked up): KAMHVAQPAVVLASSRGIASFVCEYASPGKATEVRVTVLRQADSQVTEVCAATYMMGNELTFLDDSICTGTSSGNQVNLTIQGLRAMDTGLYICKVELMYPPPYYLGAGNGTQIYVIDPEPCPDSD
The assay is described as above. The gist of the method:
as §1

B1: W3162-1.146.19-z12-uAb.IgG1K (antibody, V domains shown)
VH: QVQLQESGPGLVKPSETLSLTCSVTYHTITSGYDWTWIRKPPGKGMEWIGYISYSGNTNYNPSLKSRVTISRDTSKNQFFLKLSSVTAADTAVYYCASMMVPHYYVMDAWGQGTLVTVSS
VL: DIVMTQTPLSLSVTPGQPASISCRSSQSLLNSDGNTYLYWYLQKPGQSPQLLIYLVSKLGSGVPNRFSGSGSGTDFTLKISRVEAEDVGVYYCVQGTHDPWTFGGGTKVEIK
notes: Humanized; label says IgG1K
As to B1, the Fold change turned out to be 0.541 fold in assay [1] and 0.264 fold in assay [2].
